Consider four compounds from patent US6107076A, “Soluble mammalian adenylyl cyclase and uses therefor” (Board of Regents, The University of Texas System, priority 1996, dated 2000).

Bounds are passed on as bounds.

The target of assay [1] is T1, soluble adenylyl cyclase chimera IC1 IIC2 -L3 (C1a of type I adenylyl cyclase, residues 271-484, linked to C2a of type II adenylyl cyclase, residues 821-1090) (UniProt P19754+P26769).
T1 construct: IC1a includes residues 271-484 of type I adenylyl cyclase; IIC2a includes residues 821-1090 of type II adenylyl cyclase; made in house; host or cells: E. coli TP2000 (150,000 g supernatant)
T1 sequence (P19754+P26769 fused, change not shown): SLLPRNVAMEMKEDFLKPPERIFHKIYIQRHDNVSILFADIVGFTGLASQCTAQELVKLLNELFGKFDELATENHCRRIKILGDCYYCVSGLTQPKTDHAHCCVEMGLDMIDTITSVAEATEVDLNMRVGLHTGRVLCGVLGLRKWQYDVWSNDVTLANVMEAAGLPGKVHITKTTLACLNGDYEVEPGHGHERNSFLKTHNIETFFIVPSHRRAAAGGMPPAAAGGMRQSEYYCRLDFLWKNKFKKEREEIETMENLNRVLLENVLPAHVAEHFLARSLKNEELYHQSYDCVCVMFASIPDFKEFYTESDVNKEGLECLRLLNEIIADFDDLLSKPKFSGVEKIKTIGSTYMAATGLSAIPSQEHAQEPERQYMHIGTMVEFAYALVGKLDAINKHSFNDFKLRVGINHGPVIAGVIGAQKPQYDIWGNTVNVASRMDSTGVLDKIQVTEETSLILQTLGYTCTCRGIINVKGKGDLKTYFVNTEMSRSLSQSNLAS
The assay can be described thus: Adenylyl cyclase activity of 150,000 g supernatant from E. coli expressing IC1 IIC2 -L3. The format is biochemical, mammalian. As for the experimental part: FIG. 2--Enzyme activity of chimeras.
Data shown are representative of at least two studies.
E. coli that contained the desired plasmids were grown in LB plus 50 μM carbenicillin to OD600 =0.3. Isopropyl-β-D-thiogalactopyranoside(100 μM) and chloramphenicol (0.5 μM) were added to induce expression of adenylyl cyclase for 12 hours. Bacteria were then collected by centrifugation at 4° C. and lysed by incubation at 4° C. for 30 min in 20 mM Tris-HCl (pH 8.0), 1 mM EDTA, 2 mM dithiothreitol (DTT) and protease inhibitors with 0.1 mg/ml of lysozyme. The suspension was sonicated briefly (3×20 sec) during incubation. The lysate was centrifuged (4° C.) at 150,000×g for 30 min, and the supernatant was recovered.
The inventors examined adenylyl cyclase activity in vitro in 150,000 g supernatant fractions from E. coli […] transformed with the various constructs. […] Ca^2+ -calmodulin had no detectable effect on activity, and lysates from cells expressing either IC1 or IIC2 had little adenylyl cyclase activity.
However, the maximal stimulatory effect of the G protein α subunit exceeded that of forskolin (FIG. 4). […] Synergistic activation of the enzyme was thus not due to alternation of apparent substrate affinity.

In assay [2] the target is IC1 (C1a domain of type I adenylyl cyclase, construct of Example 5) (Bos taurus (Bovine)). The assay can be described thus: estimated from the adenylyl cyclase activity of 0.1 µM IC1 titrated with IIC2 without activator (FIG. 13A, model of FIG. 15); no direct binding assay.
Assay [3] shares this target.
Assay [4] has the same target. The source holds these as a separate data set.
The target of assay [5] is mixture of IC1 and IIC2 (non-covalent complex of the C1 domain of type I and the C2 domain of type II adenylyl cyclase) (Bos taurus (Bovine); Rattus norvegicus (Rat)).
For assay [6], the target named is IC1 IIC2 -L3.
In assay [7] the target is mixture of IC1 and IIC2 (non-covalent complex of the C1 domain of type I and the C2 domain of type II adenylyl cyclase) (Bos taurus (Bovine); Rattus norvegicus (Rat)). The experiment in a line: equilibrium constant of the model of FIG. 15, derived from the EC50 of activated Gsα for adenylyl cyclase activity of mixed IC1 and IIC2; no direct binding assay.
The target in assay [8] is IC1 IIC2 -L1.
The target in assay [9] is IC1 IIC2 -L3. This is another data set of the same source.
Assay [10] addresses IC1 IIC2 -L5.

In the case of `C=CC1(C)CC(=O)C2C3(C)CCCC(C)(C)C3C(O)C(OC(C)=O)C2(C)O1` (stereo not drawn) [1,9-dideoxyforskolin], the “stimulation of adenylyl cyclase activity” value in [1] (150,000 g supernatant, FIG. 3) is listed as “failed to stimulate”.
For `Nc1ncnc2c1ncn2[C@H]1C[C@H](OP(=O)(O)O)[C@@H](CO)O1` [2'-deoxy-3'-AMP], the “inhibition of adenylyl cyclase activity (P-site inhibitor), mode” value in assay [1] (forskolin-activated enzyme, FIG. 7) is given as “inhibited noncompetitively”.
Turning to “IIC2 (C2 domain of type II adenylyl cyclase, construct of Example 5) (enzyme)”, the Kd in assay [2] was more than 10000 nM. In assay [3], this compound yielded an EC50 for IIC2, adenylyl cyclase activity with IC1 in the absence of activators of more than 10000 nM. Further, in [4], the apparent EC50 for IIC2, adenylyl cyclase activity with 8 nM IC1, 50 µM FSK and 10 µM GTP[γS]-Gsα is 15 nM; the apparent EC50 for IIC2, adenylyl cyclase activity with 8 nM IC1 and 50 µM FSK was found to be 190 nM.
On to “wild-type alpha subunit of the G protein (Gsα)”, for which the adenylyl cyclase activity of purified mixed fragments (8 nM IC1, 6.6 µM IIC2) against the concentration of activated Gsα in assay [5] is more than 100 fold. In assay [6], this compound came in with an EC50 for activation of adenylyl cyclase activity of 1000 nM. The K4 in [7] amounted to 0.4 µM. The adenylyl cyclase activity of 150,000 g supernatant in assay [8], in [9] and in assay [10] was 50 fold in each case.
